{
  "source": "patent US20020037506",
  "about": "“Aptamer based two-site binding assay” (published 2002)",
  "key": {"alpha-thrombin [1]": {"target": "T1, alpha-thrombin (Homo sapiens, UniProt P00734;P00734 P00734:328-363,P00734:364-622)", "assay": "flow; reporter with MC-beads, 30 nM thrombin, 37 C; values in figure only"}, "alpha-thrombin [2]": {"target": "T1, alpha-thrombin", "assay": "detector in two-step sandwich on nylon membrane with immobilized DT-aptamer, room temperature, 100 uM heparin"}, "alpha-thrombin [3]": {"target": "T1, alpha-thrombin", "assay": "flow; reporter with DT-beads (FIG. 2 legend cites SEQ 12 but Table 1 gives SEQ 7); 50 mM Tris pH 7.5, 100 mM NaCl, 2 mM MgCl2, 37 C"}},
  "data": [
    {"binder": "TTTTTGCTTAGTCCGTGGTAGGGCAGGTTGGGGTGACTAAGC (ssDNA)", "note": "[DT-5'-LNK-F]", "values": [
      {"measurement": "binding result", "setting": "alpha-thrombin [1]", "result": "binds"}
    ]},
    {"binder": "MC-DIMR-F (ssDNA, dimer; second half is the MC sequence in reverse order, structure drawn as image only) DNA: GTAGTCACTGGTTGGTGAGGTTGGGTGACTACTTTTTTCATCAGTGGGTTGGAGTGGTTGGTCACTGATG", "values": [
      {"measurement": "binding result", "setting": "alpha-thrombin [2]", "result": "binds"}
    ]},
    {"binder": "TTTTTTGTAGTCACTGGTTGGTGAGGTTGGGTGACTAC (ssDNA)", "note": "[MC-5'-LNK-F]", "values": [
      {"measurement": "binding result", "setting": "alpha-thrombin [3]", "result": "binds"}
    ]}
  ]
}
